# Reference: patent publication US20250222128A1, “ANTIBODY DRUG-CONJUGATES TARGETING C-MET AND METHODS OF USE THEREOF” (Zymeworks BC Inc., priority 2022, published 2025)
# “Also recorded” adds a separate entry of the source.
# Legend:
# Format in all cases: cell-based
# [1] = tested on: AKT phosphorylation in H441 lung cancer cells; assay: cMet pathway agonism by Phospho-AKT ELISA; conditions: 100 nM, up to 60 minutes, FIG. 5B and FIG. 7
# Method: (§1) cMet pathway agonism of the anti-cMet antibody variant v17427 (HetFc, unmodified hinge) and ADCs comprising variant v17427 stochastically cysteine-conjugated to Drug-Linker 001 or MCvcPABC-MMAE at DAR 4 was assessed by cell proliferation and ELISA to measure for AKT phosphorylation as a downstream indicator of cMET activation.
# (§2) Phospho-AKT ELISA: Briefly, H441 or H596 lung cancer cells were detached with Cell Dissociation Buffer, seeded in 24-well tissue culture plates with RPMI-1640+10% FBS at a density of 50,000 cells/well, and incubated overnight (37° C., 5% CO2). Cells were then serum starved overnight (37° C., 5% CO2) by replacing the complete growth medium with serum-free RPMI-1640. […] Lysate protein concentration was assessed by a BCA protein assay (Thermo Fisher Scientific Inc., Cat. No. 23223 and 23224). Phospho-AKT levels in 10 μg of lysate was assessed using the PathScan® Phospho-Akt1 (Ser473) Sandwich ELISA Kit (Cell Signaling Technology, Cat. No. 7160C) as per manufacturer's instructions. Absorbance at 450 nm was measured using a Synergy™ H1 microplate (BioTek Instruments, Winooski, VT). Fold AKT phosphorylation was calculated by subtracting background A450 nm signal from all wells using signal blank wells, and then normalizing to the A450 nm signal of untreated cells at each corresponding timepoint. […]
# H596 lung cancer cells = assay: cMet pathway agonism by cell proliferation; conditions: serum starved cells; titration of test article; 6 days; FIG. 4 and FIG. 6
# Method: as §1
# Cell proliferation: Briefly, H596 lung cancer cells were serum starved overnight (37° C., 5% CO2) by replacing the complete growth medium with serum-free RPMI-1640 (Thermo Fisher Scientific Inc., Waltham, MA; Cat. No. A1049101). Cells were then detached with Cell Dissociation Buffer (Thermo Fisher Scientific Inc., Cat. No. 13151014), resuspended in RPMI-1640 supplemented with 1% FBS (v/v) (Thermo Fisher Scientific Inc., Cat. No. 12483-020) and seeded in 384-well tissue culture plates at a density of 1,000 cells/well. […] After incubation, CellTiter-Glo® reagent (Promega Corporation, Madison, WI; Cat. No. G7570) was spiked in all wells and luminescence corresponding to ATP present in each well was measured using a Synergy™ H1 microplate (BioTek Instruments, Winooski, VT). Based on untreated cells (no test article added), % viability values were calculated using ATP measurement RLU values (Relative Light Units) and plotted against test article concentration using GraphPad Prism 8 software (GraphPad Software, San Diego, CA). […]
# [2] = tested on: AKT phosphorylation in H596 lung cancer cells; assay: cMet pathway agonism by Phospho-AKT ELISA; conditions: 100 nM, up to 60 minutes, FIG. 5A
# Method: as §1, §2
molecule,measurement,setting,value
"v17429: control antibody, bivalent version of the anti-cMet antibody MetMab (onartuzumab), HetFc (antibody, chains of the INN, looked up, V domains shown, bivalent IgG, HetFc) VH: EVQLVESGGGLVQPGGSLRLSCAASGYTFTSYWLHWVRQAPGKGLEWVGMIDPSNSDTRFNPNFKDRFTISADTSKNTAYLQMNSLRAEDTAVYYCATYRSYVTPLDYWGQGTLVTVSS VL: DIQMTQSPSSLSASVGDRVTITCKSSQSLLYTSSQKNYLAWYQQKPGKAPKLLIYWASTRESGVPSRFSGSGSGTDFTLTISSLQPEDFATYYCQQYYAYPWTFGQGTKVEIK",AKT phosphorylation,[1],strong AKT phosphorylation; also recorded: strongly induced phosphorylation
same,H596 proliferation compared to untreated controls,H596 lung cancer cells,dose-dependent increase in H596 proliferation; also recorded: strong dose-dependent increase in proliferation
same,AKT phosphorylation,[2],strong AKT phosphorylation
